Residue numbers refer to the chain shown, from its start.
Tests used:
Assay in all cases: cell-based or functional assay
[1] = target: T1, Chryseobacterium sp-62563 deamidase L260E (Chryseobacterium sp-62563)
T1 chain: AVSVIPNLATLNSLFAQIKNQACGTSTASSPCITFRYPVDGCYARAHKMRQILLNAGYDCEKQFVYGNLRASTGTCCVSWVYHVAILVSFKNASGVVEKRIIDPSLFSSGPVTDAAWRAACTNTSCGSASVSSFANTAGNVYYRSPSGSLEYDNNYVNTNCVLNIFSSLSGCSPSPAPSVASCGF

[2] = target: T2, Chryseobacterium sp-62563 deamidase V190D (Chryseobacterium sp-62563)
T2 chain: T1 chain with V81D, E151L

[3] = target: T3, Chryseobacterium sp-62563 deamidase S258E (Chryseobacterium sp-62563)
T3 chain: T1 chain with S149E, E151L

[4] = target: T4, Chryseobacterium sp-62563 deamidase V190M (Chryseobacterium sp-62563)
T4 chain: T1 chain with V81M, E151L

[5] = target: T5, Chryseobacterium sp-62563 deamidase Y252S (Chryseobacterium sp-62563)
T5 chain: T1 chain with Y143S, E151L

[6] = target: T6, Chryseobacterium sp-62563 deamidase P255D (Chryseobacterium sp-62563)
T6 chain: T1 chain with P146D, E151L

[7] = target: T7, Chryseobacterium sp-62563 deamidase V190P (Chryseobacterium sp-62563)
T7 chain: T1 chain with V81P, E151L

[8] = target: T8, Chryseobacterium sp-62563 deamidase L260K (Chryseobacterium sp-62563)
T8 chain: T1 chain with E151K

[9] = target: T9, Chryseobacterium sp-62563 deamidase L259P (Chryseobacterium sp-62563)
T9 chain: T1 chain with L150P, E151L

[10] = target: T10, Chryseobacterium sp-62563 deamidase V190G (Chryseobacterium sp-62563)
T10 chain: T1 chain with V81G, E151L

[11] = target: T11, Chryseobacterium sp-62563 deamidase S254K (Chryseobacterium sp-62563)
T11 chain: T1 chain with S145K, E151L

[12] = target: T12, Chryseobacterium sp-62563 deamidase V190A (Chryseobacterium sp-62563)
T12 chain: T1 chain with V81A, E151L

[13] = target: T1, Chryseobacterium sp-62563 deamidase …

NanoDSF thermal unfolding temperature [1]: 72.6 ° C.
NanoDSF thermal unfolding temperature [2]: 75.4 ° C.
NanoDSF thermal unfolding temperature [3]: 78.3 ° C.
NanoDSF thermal unfolding temperature [4]: 82 ° C.
NanoDSF thermal unfolding temperature [5]: 73.4 ° C.
NanoDSF thermal unfolding temperature [6]: 81.4 ° C.
NanoDSF thermal unfolding temperature [7]: 74.9 ° C.
NanoDSF thermal unfolding temperature [8]: 75.5 ° C.
NanoDSF thermal unfolding temperature [9]: 80 ° C.
NanoDSF thermal unfolding temperature [10]: 78 ° C.
NanoDSF thermal unfolding temperature [11]: 81.1 ° C.
NanoDSF thermal unfolding temperature [12]: 68.6 ° C.
Relative activity of maturated deamidase [13]: 53 % initial rate
B1: Chryseobacterium sp-62563 propeptide (first polypeptide, propeptide domain), wildtype (other)
chain: NQDPNLVAKESNETAMKDFGKTVPVGIEKEDGKFKISFMVTAQPYEIKDSKENAAYISMIKTAVENETPIHVFLKANTNEIAKVDKATDDDIRYFKSVFTKEVKEENRK

Reference: patent US20250215412A1 (NOVOZYMES A S, published 2025)
